Legend:
[1] = tested on: human gastric cancer PDX-GA0006 model; experiment: In vivo efficacy experiment of subcutaneous transplanted tumor in mouse PDX model (Example 2); design: species or system BALB/c nude mice; conditions: tumors weighed after euthanasia on D51; Ab 40 mg/kg i.p. 3 times a week; epirubicin 1.25 mg/kg, oxaliplatin 3.25 mg/kg, fluorouracil 56.25 mg/kg once a week
Excerpt: A 2×2×2 mm gastric cancer PDX tumor mass was inoculated into BALB/c mice (the day of inoculation was DO). On D27 of subcutaneous inoculation, the tumor volume was 128 mm^3 on average, thereby obtaining the human gastric cancer PDX-GA0006 model, or abbreviated as PDX model. The tumor-forming mice were randomly divided into 6 groups, namely solvent group, antibody group (Ab group), EOF group, EOF+Ab group, OF group, OF+Ab group. During the experiment, the general clinical symptoms of the animals were observed, and the body weight and tumor diameter were measured twice a week. On D51, the mice were euthanized. The manners of administration are listed as follows:
Solvent group: intraperitoneal injection, 3 times a week.
Ab group: antibody against CLD18A2 prepared in Example 1, 40 mg/kg, intraperitoneal injection, 3 times a week.
EOF group: a combination of epirubicin hydrochloride for intraperitoneal injection (1.25 mg/kg)+oxaliplatin for injection (3.25 mg/kg)+fluorouracil injection (56.25 mg/kg), once a week; solvent, intraperitoneal injection, 3 times a week.
EOF+Ab group: EOF (epirubicin hydrochloride (1.25 mg/kg)+oxaliplatin for injection (3.25 mg/kg)+fluorouracil injection (56.25 mg/kg)), once a week, the antibody against CLD18A2 (40 mg/kg), 3 times a week. […]

[2] = tested on: human gastric cancer PDX-GA0006 model; experiment: Analysis of the administration amount of antibody in tumor-forming PDX mice (Example 3); type: in vivo, BALB/c nude mice; conditions: AB3 group: 100 mg/kg i.p. 3 times a week for 2 weeks, versus 40 and 70 mg/kg; FIG. 5
Procedure: (§1) According to Example 2, different dosage of antibodies were administered to tumor-forming mice. The administration manners are listed as follows:
(§2) 1. AB1, administered with the antibody against CLD18A2 prepared in Example 1, at a dosage of 40 mg/kg, intraperitoneal injection, 3 times a week for 2 weeks.
(§3) 2. AB2, administered with the antibody against CLD18A2 prepared in Example 1, at a dosage of 70 mg/kg, intraperitoneal injection, 3 times a week for 2 weeks.
(§4) 3. AB3, administered with the antibody against CLD18A2 prepared in Example 1, at a dosage of 100 mg/kg, intraperitoneal injection, 3 times a week for 2 weeks.

[3] = Body weight of mice given different dosages of antibody (Example 3); type: in vivo, BALB/c nude mice; conditions: 40, 70, 100 mg/kg i.p. 3 times a week for 2 weeks; FIG. 6
Procedure: as §1, §2, §3, §4

B1: Ab: humanized antibody targeting CLD18A2, heavy chain variable region SEQ ID NO: 15, light chain variable region SEQ ID NO: 13 (antibody, V domains shown)
VH: QVQLQESGPGLIKPSQTLSLTCTVSGGSISSGYNWHWIRQPPGKGLEWIGYIHYTGSTNYNPALRSRVTISVDTSKNQFSLKLSSVTAADTAIYYCARIYNGNSFPYWGQGTTVTVSS
VL: DIVMTQSPDSLAVSLGERATINCKSSQSLFNSGNQKNYLTWYQQKPGQPPKLLIYWASTRESGVPDRFSGSGSGTDFTLTISSLQAEDVAVYYCQNAYSFPYTFGGGTKLEIKR
tumor inhibition rate compared with the solvent group (tumor weight) [1]: 1.21% | anti-tumor effects (increase in tumor volume) at different dosages [2]: better anti-tumor effects | change in body weight of mice [3]: no significant change
